Assay results published in paper PMC11430298, “Complexes of HMO1 with DNA: Structure and Affinity”.

T1: HMO1 (Saccharomyces cerevisiae, UniProt Q03973 1-246)
T1 sequence: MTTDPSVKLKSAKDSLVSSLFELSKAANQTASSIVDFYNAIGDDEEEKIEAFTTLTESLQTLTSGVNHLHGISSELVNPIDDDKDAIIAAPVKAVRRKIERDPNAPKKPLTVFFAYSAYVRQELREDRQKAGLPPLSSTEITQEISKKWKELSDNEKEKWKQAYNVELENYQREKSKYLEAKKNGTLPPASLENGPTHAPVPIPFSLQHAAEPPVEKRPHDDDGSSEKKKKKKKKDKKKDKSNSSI


Molecular target: T1, HMO1
Assay: EMSA; apparent Kd from Hill fit of free DNA; 6 nM DNA; EMSA: 17 mM HEPES pH 7.6, 2 mM Tris-HCl, 0.8 mM Na3EDTA, 0.11 mM 2-mercaptoethanol, 11 mM NaCl, 1.1% glycerol, 12% sucrose; 6 nM DNA, 10-800 nM HMO1, 30 min at
Conditions: protein: recombinant, tags: N-terminal His6 (pET15b), blunt

Row | Binder | Kd (label: 5'-Cy3 on strand 2 (S6)) [nM] | Kd (label: 5'-Cy3 on strand 1 (S3)) [nM]
1 | SO duplex (IFHL site) (dsDNA) DNA 1: ACTACGCTCTAGGCAGAGTTCACC DNA 2: GGTGAACTCTGCCTAGAGCGTAGT | 62 | 
2 | RO duplex (randomized sequence) (dsDNA) DNA 1: CTATCGGCACACTTCACGGCACAC DNA 2: GTGTGCCGTGAAGTGTGCCGATAG |  | 128
